Here are results for nine molecules from publication PMC4259358, “Functional Characterization of Nuclear Localization and Export Signals in Hepatitis C Virus Proteins and Their Role in the Membranous Web” (PLoS ONE, 2014).

Settings in all cases: both partners purified
Experiment [1] concerns the target T1, recombinant IPO5 (importin β3/kap β3) (UniProt O00410-1 1-1097).
T1 sequence (looked up): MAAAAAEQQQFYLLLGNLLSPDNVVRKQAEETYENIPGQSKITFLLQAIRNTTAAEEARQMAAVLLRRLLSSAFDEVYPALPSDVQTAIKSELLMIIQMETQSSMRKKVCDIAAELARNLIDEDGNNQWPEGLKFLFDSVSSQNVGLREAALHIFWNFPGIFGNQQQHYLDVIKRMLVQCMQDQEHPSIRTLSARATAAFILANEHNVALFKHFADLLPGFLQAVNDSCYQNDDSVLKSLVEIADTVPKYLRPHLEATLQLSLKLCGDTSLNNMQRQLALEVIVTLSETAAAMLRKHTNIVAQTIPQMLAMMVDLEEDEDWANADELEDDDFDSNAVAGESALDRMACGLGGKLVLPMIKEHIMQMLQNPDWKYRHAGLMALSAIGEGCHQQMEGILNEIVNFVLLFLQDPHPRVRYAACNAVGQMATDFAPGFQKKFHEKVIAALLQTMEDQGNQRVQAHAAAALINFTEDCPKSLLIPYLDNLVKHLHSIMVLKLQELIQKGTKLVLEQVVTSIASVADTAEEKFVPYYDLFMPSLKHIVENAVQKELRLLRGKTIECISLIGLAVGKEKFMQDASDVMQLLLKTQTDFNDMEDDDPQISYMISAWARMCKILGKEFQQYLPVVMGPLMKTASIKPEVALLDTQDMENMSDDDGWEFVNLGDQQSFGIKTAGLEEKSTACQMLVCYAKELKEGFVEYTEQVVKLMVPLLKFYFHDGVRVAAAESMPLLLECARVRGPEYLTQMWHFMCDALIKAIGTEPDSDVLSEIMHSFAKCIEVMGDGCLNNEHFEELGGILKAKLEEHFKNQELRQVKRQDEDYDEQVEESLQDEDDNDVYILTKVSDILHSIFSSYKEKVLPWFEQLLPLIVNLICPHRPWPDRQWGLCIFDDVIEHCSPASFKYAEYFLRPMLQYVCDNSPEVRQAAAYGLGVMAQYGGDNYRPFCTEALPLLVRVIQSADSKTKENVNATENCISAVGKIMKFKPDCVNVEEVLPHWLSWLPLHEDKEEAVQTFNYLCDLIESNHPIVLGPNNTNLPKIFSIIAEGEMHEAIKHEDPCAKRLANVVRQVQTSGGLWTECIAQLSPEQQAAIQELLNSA
In words: ELISA; plates coated with synthetic peptide (10 µg/ml, carbonate buffer pH 9.6); increasing concentrations of recombinant NTF, 2 h, room temperature; anti-HIS detection; apparent Kd. On the technique in general: In an ELISA, binding on a coated surface is turned into a signal by an enzyme label.

The target in experiment [2] is T2, recombinant IPOA5 (importin α5/kap α1) (UniProt P52294 1-538). The description is as above.
Experiment [3] has as its target T1, recombinant IPO5 (importin β3/kap β3). In words: ELISA; plates coated with recombinant HCV protein (10 µg/ml, carbonate buffer pH 9.6); recombinant NTF added, 2 h, room temperature; anti-NTF antibodies; apparent Kd.
Experiment [4] has as its target T3, recombinant XPO1 (exportin 1/CRM1) (UniProt O14980 1-1071). The description is as above.
For experiment [5], the target named is T2, recombinant IPOA5 (importin α5/kap α1). The experiment is described as above.
In experiment [6] the target is T3, recombinant XPO1 (exportin 1/CRM1). In words: ELISA; plates coated with synthetic peptide (10 µg/ml, carbonate buffer pH 9.6); increasing concentrations of recombinant NTF, 2 h, room temperature; anti-HIS detection; apparent Kd.
The target in experiment [7] is T2, recombinant IPOA5 (importin α5/kap α1). The experiment is described as above. This is another data set of the same source.

T2 sequence (P52294 whole entry): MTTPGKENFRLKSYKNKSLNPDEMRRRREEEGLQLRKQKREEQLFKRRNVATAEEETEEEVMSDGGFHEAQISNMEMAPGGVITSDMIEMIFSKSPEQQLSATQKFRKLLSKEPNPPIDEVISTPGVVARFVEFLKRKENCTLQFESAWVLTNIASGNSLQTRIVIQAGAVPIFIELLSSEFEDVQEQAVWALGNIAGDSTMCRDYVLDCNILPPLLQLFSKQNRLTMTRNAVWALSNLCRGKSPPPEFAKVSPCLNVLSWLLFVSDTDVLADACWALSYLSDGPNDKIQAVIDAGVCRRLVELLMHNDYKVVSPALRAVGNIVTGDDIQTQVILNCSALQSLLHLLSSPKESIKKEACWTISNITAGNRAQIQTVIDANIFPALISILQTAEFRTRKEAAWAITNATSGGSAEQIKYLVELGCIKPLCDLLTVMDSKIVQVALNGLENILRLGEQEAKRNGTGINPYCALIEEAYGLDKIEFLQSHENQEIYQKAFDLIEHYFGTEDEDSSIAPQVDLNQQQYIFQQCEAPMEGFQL
T3 sequence (O14980 whole entry): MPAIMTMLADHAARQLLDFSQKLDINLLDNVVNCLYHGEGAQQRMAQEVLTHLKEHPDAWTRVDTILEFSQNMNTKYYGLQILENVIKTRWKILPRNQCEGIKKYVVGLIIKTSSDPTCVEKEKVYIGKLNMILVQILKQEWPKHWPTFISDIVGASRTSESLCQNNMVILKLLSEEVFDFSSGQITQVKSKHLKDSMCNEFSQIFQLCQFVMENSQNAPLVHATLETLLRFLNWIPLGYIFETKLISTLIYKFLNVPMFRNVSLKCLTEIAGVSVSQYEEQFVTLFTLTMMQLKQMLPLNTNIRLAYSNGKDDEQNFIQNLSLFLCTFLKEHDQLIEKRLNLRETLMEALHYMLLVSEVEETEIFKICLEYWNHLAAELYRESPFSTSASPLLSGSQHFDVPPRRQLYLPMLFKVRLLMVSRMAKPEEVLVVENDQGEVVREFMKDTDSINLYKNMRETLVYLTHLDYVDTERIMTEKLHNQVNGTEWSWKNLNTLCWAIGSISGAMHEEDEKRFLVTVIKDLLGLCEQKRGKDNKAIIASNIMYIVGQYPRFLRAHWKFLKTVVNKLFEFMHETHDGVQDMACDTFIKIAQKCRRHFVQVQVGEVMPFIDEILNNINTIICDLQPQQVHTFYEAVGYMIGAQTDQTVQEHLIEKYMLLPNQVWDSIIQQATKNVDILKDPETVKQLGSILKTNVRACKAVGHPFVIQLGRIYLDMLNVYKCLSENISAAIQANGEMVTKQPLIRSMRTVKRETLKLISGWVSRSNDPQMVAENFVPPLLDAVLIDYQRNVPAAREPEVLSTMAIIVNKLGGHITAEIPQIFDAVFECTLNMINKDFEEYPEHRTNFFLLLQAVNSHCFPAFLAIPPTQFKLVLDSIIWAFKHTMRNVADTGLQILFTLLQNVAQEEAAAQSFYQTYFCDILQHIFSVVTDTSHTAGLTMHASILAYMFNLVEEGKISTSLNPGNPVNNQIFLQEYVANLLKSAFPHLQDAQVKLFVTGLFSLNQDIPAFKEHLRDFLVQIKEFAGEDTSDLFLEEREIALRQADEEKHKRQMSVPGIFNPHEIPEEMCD

B1: Core NLS 2 synthetic peptide (fused to penetratin) (peptide)
peptide: PRRGPRLGVRRQIKIWFQNRRMKWKK
notes: source: synthetic peptide (GL Biochem, HPLC >85%)
As to B1, the Kd in experiment [1] is 78.8 ± 6.42 nM; in experiment [2], 24.9 ± 1.71 nM.

B2: recombinant full-length HCV core protein (natural protein)
chain: STNPKPQRKTKRNTNRRPEDVKFPGGGQIVGGVYLLPRRGPRLGVRTTRKTSERSQPRGRRQPIPKDRRSTGKAWGKPGRPWPLYGNEGLGWAGWLLSPRGSRPSWGPTDPRHRSRNVGKVIDTLTCGFADLMGYIPVVGAPLSGAARAVAHGVRVLEDGVNYATGNLPGFPFSIFLLALLSCITVPVSA
Regarding B2, the Kd was 56 ± 2.78 nM in experiment [3], 23.1 ± 4.07 nM in experiment [4] and 36.8 ± 4.83 nM in experiment [5].

B3: NS2 NES synthetic peptide (fused to penetratin) (peptide)
peptide: LILLTLSPHYKLFLARLIWWLQYFITRQIKIWFQNRRMKWKK
notes: as for B1
For B3, in experiment [6], the Kd turned out to be 79.8 ± 25.6 nM.

B4: Core NES 2 synthetic peptide (fused to penetratin) (peptide)
peptide: LPGCSFSIFLLALLSCITVPVSARQIKIWFQNRRMKWKK
notes: as for B1
As to B4, the Kd in experiment [6] was determined as 95.2 ± 26.6 nM.

B5: Core NLS 3 synthetic peptide (fused to penetratin) (peptide)
peptide: PRGRRQPIPKDRRSTGKAWGKPRQIKIWFQNRRMKWKK
notes: as for B1
For B5, the Kd was 40.4 ± 7.06 nM in experiment [1] and 17.5 ± 0.81 nM in experiment [2].

B6: Core NLS 1 synthetic peptide (fused to penetratin) (peptide)
peptide: PKPQRKTKRNTNRRPRQIKIWFQNRRMKWKK
notes: as for B1
For B6, the Kd in experiment [1] was determined as 34.8 ± 4.54 nM; in experiment [2], 161 ± 31.8 nM.

B7: Core NES 1 synthetic peptide (fused to penetratin) (peptide)
peptide: KVIDTLTCGFADLMGRQIKIWFQNRRMKWKK
notes: as for B1
As to B7, the Kd in experiment [6] came to 66.7 ± 11.3 nM.

B8: NS2 NLS synthetic peptide (fused to penetratin) (peptide)
peptide: PIIFSPMEKKVIVWGRQIKIWFQNRRMKWKK
notes: as for B1
B8: the Kd is approximately 34 nM in experiment [7] and 79.2 ± 3.89 nM in experiment [2].

B9: HIV-1 Rev NES synthetic peptide (fused to penetratin) (peptide)
peptide: LQLPPLERLTLRQIKIWFQNRRMKWKK
notes: as for B1
Regarding B9, the Kd in experiment [6] came to 114 ± 71.5 nM.
